According to FireProtDB (doi:10.1002/pro.346):

Details: Homo sapiens; pH 7.4; 25 °C; GdnHCl; CD; KPi 50 mM; structure 1TIT

Substance	ddG of mutation (higher = less stable) [kcal/mol]	denaturant m value [kcal/mol/M]	denaturant midpoint (higher = more stable) [M]	unfolding free energy [kcal/mol]
Titin Y12685F, Q8WZ42	0.4	2.2	2.5	5.5
Titin Y12685S, Q8WZ42	0.2	2.2	2.6	5.7
Titin Y12685G, Q8WZ42	0.8	2.2	2.3	5.1
Titin Y12685P, Q8WZ42	2.2	2.2	1.7	3.7
